In one test the test system is MCF7 tumors. The experiment in a line: MCF7 breast tumor xenograft, tumor volume. It is filed as in vivo, NCr nude mice. Here is the method:
After MCF7 or MCF7/PRLR tumors reached an average volume of ˜150-200 mm^3 (14-16 days post implantation), mice were randomized into treatment groups (n=8-9 mice/group) and received a single dose or three once-weekly doses of H1H6958N2-DM1, control ADC, or vehicle control, administered systemically by intravenous tail-vein injection. Tumor size and body weight were measured in vivo twice per week throughout the duration of the study.
The T47Dv11 model was used to assess the activity of H1H6958N2-DM1 in a model with significant levels of endogenous PRLR. As parental T47D cells are poorly tumorigenic, in vivo passaging was employed to develop a variant with consistent tumorigenicity. Initially, 10×10^6 parental T47D cells were implanted subcutaneously (SC) into the left flank of female C.B.-17 SCID mice (Taconic, Hudson N.Y.). Tumors were supplemented with a 90-day release 1.7 mg estrogen pellet (Innovative Research America). Where T47D tumors were observed, they were excised and cut into 3 mm fragments and subsequently implanted into the left flank of separate female C.B.-17 SCID mice. Subsequent passaging was performed until a large tumor was disaggregated into a single cell suspension. The cells (named T47Dv11) from this tumor were then cultured in vitro and expanded. […] For efficacy studies, mice were implanted with 7.5×10^6 T47Dv11 cells into the left flank of female C.B.-17 SCID mice supplemented with a 90-day release 0.72 mg/pellet estrogen pellet. For MCF7 and MCF7/PRLR tumor xenografts, 2×10^7 MCF7/PRLR cells were implanted SC into the left mammary fat pad of female NCr nude mice (7-8 weeks old) supplemented with 90-day release 0.72 mg/pellet estrogen pellets. Tumors were measured with calipers twice a week for the duration of each study. Tumor volume was calculated using the formula TV=(length×width^2)/2.

For the next test, the system named is PRLR expressing cells. The experiment in a line: In vitro cell viability (cell kill) assay, several cell backgrounds. Type of test: cell-based, human. The conditions noted are these: PC3/hPRLR and MCF7/hPRLR cell lines. The text has this:
PRLR-overexpressing cells, including HEK293, PC3, MCF7 and NCI-N87, were generated to assess the ability of anti-PRLR conjugated antibodies to reduce cell viability. For comparative purposes, PC3 and T47D cells with overexpressed ErbB2 were also generated, as well as an MCF7 cell line over-expressing both hPRLR and hErbB2. Briefly, Lipofectamine® 2000-mediated transfection methodology was utilized to generate HEK293 cells expressing human PRLR (HEK293/hPRLR) or human ErbB2 (HEK293/hErbB2). Lipofectamine LTX with Plus Reagent was used to generate PC3 cells expressing human PRLR (PC3/hPRLR) or human ErbB2 (PC3/hErbB2). Lentiviral-mediated transduction was utilized to generate MCF7 cells expressing human PRLR (MCF7/hPRLR), NCI-N87 cells expressing human PRLR (NCI-N87/hPRLR), T47D cells over-expressing human ErbB2 (T47D/hErbB2), and MCF7 cells expressing both human PRLR and human ErbB2 (MCF7/hPRLR/hErbB2). All lines were selected for at least two weeks in complete growth media plus appropriate selection reagents. Stably expressing populations were enriched for PRLR expression via FACS using the anti PRLR antibody Control I.
Next, the ability of anti-PRLR-DM1 antibody-drug conjugates (i.e., anti-PRLR antibodies conjugated to DM1 via a non-cleavable linker [SMCC]) to reduce cell viability was determined using in vitro cell based assays. Cells were seeded in PDL-coated 96 well plates at 1500 to 10000 cells per well in complete growth media and allowed to grow overnight. For cell viability curves, ADCs or free DM1 (as the methyl disulfide derivative DM1-SMe) were added to the cells at final concentrations ranging from 500 nM to 5 pM and incubated for 3 days. The 293, PC3 and T47D cells were incubated with CCK8 (Dojindo, Rockville, Md.) for the final 1-3 hours and the absorbance at 450 nm (OD450) was determined on a Flexstation3 (Molecular Devices, Sunnyvale, Calif.). MCF7 cells were treated with Hoechst 33342 nuclear stain while being fixed with 4% formaldehyde. Images were acquired on the ImageXpress micro XL (Molecular Devices, Sunnyvale, Calif.) and nuclear counts were determined via Columbus image analysis software (Perkin Elmer, Shelton, Conn.). Background OD450 values (PC3, 293, and T47D) or nuclear counts (MCF7) from digitonin (40 nM) treated cells was subtracted from all wells and viability was expressed as a percentage of the untreated controls. IC50 values were determined from a four-parameter logistic equation over a 10-point response curve (GraphPad Prism).

This is an account of results in patent US10925971B2, “Methods of treating PRLR positive breast cancer” (Regeneron Pharmaceuticals, Inc., priority 2016, dated 2021).

B1: H1H6958N2-DM1: anti-PRLR antibody H1H6958N2 conjugated to the maytansinoid DM1 through an SMCC linker (conjugate)
VH: QVQLVESGGGVVQPGRSLRLSCGASGFTFRNYGMQWVRQGPGKGLEWVTLISFDGNDKYYADSVKGRFTISRDNSKNTLFLQMNSLRTEDTAVYYCARGGDFDYWGQGTLVTVSS
VL: DIQMTQSPSSLSASVGDRVTITCRASQDIRKDLGWYQQKPGKAPKRLIYAASSLHSGVPSRFSGSGSGTEFTLTISSLQPEDFATYYCLQHNSYPMYTFGQGTKLEIK
Turning to B1, the “anti-tumor activity” value is “significantly inhibited MCF7 tumor growth” in the test with MCF7 tumors (repeat treatment (q7dx3), 10 and 15 mg/kg, relative to control ADC); “significantly inhibited the growth of the MCF7 tumors” in the test on MCF7 tumors (single dose 15 mg/kg, relative to control ADC); “moderate in vivo anti-tumor activity” in the test with MCF7 tumors (single dose of 5 or 10 mg/kg). For the same molecule, the “cell killing, non-cleavable DM1 ADCs versus cleavable MMAE ADCs” value in the test with PRLR expressing cells is listed as “nearly equivalent cell killing”.
